Blank lines part the entries; values can stand above or below the molecule they belong to.
Assays:
LRP5 = LRP5 (Homo sapiens, UniProt O75197); experiment: ^125I-DKK1 binding to LRP5, competition by Mesd or oligopeptide (FIG. 10B)
Description: (§1) In order to investigate the binding of Mesd polypeptide and an Mesd oligopeptide to either LRP5 or LRP6, binding assays were performed using ^125I-Mesd or ^125I-DKK1 (FIG. 10).

ST-2 cells = experiment: Alkaline phosphatase activity in ST-2 cells infected with DKK1 retrovirus; format: cell-based; settings: increasing amounts of oligopeptide; non-transfected cells approximately 0.14 units, DKK1-infected cells about 0.02 units
Source text: Osteoblasts are cells which build bone. One marker for osteoblast activity is the cell surface enzyme alkaline phosphatase (AP). ST-2 cells are an osteoblast-derived cell line which provides an in vitro model system for studying osteoblast activity. […] Treatment of the transfected cells with increasing amounts of a Mesd oligopeptide having sequence

LRP6 = LRP6 (Homo sapiens, UniProt O75581); experiment: ^125I-Mesd binding to LRP6, competition by Mesd or oligopeptide (FIG. 10C); design: plasmid pCS-Myc-hLRP6 containing the full-length human LRP6 cDNA; HA; expressed in transfected cells; host or cells: human HT1080 cells, stably transduced (pLNCX2 retroviral vector); settings: compared with LRP5 (up to about 10-fold)
Chain of LRP6 (O75581 20-1613): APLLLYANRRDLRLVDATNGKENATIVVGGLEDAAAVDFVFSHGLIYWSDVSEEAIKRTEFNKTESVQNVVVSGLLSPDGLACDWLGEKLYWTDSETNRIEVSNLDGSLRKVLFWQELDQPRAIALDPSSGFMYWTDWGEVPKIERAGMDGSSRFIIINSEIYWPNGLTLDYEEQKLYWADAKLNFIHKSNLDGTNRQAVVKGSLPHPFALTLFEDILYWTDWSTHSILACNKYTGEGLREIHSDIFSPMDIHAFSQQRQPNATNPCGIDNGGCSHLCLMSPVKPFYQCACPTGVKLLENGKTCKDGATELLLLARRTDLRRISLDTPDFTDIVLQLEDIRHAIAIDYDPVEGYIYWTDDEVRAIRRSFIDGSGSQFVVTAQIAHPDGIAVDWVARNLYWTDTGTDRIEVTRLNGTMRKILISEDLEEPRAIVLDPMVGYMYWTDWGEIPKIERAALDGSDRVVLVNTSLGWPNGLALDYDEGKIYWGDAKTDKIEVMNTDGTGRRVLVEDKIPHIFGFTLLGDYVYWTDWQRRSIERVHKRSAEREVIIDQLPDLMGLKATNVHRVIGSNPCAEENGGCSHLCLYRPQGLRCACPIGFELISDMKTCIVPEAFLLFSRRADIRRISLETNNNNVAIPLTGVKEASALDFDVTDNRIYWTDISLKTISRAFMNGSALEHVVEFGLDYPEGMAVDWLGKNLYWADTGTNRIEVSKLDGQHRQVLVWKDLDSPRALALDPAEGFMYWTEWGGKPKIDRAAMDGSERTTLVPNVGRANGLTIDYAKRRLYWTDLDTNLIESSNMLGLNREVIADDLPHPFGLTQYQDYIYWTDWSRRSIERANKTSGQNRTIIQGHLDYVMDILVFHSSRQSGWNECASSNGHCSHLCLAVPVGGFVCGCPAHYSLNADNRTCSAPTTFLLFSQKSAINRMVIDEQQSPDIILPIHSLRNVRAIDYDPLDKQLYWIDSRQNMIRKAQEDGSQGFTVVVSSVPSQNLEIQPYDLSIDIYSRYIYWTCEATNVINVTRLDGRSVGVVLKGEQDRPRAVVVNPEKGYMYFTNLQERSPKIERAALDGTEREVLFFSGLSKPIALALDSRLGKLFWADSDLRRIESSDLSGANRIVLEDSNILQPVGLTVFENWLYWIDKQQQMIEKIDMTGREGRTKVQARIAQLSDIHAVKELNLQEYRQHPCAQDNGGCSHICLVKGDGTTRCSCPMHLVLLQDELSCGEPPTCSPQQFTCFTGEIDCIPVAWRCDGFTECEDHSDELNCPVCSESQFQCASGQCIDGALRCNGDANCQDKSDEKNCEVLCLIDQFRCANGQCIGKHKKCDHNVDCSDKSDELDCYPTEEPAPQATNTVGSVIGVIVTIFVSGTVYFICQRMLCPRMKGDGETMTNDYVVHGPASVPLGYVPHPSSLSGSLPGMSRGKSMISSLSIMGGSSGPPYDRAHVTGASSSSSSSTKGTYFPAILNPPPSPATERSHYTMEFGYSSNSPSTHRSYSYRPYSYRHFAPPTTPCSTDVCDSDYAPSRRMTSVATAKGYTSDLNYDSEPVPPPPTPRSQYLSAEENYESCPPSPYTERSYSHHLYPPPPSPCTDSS
Description: as §1

[1] = molecular target: T1, LRP6 on LRP6-transduced HT1080 cells (HA-tagged) (UniProt O75581 20-1613, limits assumed); experiment: binding of truncated Mesd mutants to cell surface LRP6 (FIG. 3B)
T1 construct: whole, on cells; also called mature LRP6; cell surface LRP6
T1 sequence (O75581 20-1613 limits assumed): as the sequence (O75581 20-1613) above

[2] = molecular target: T2, human Myc-tagged LRP5 on transiently transfected HEK293 cells (human, UniProt O75197 32-1615); experiment: competition against 125I-Mesd for LRP5 (FIG. 10A)
T2 construct: whole, on cells; also called mature LRP5; pcDNA3.1C-Myc-hLRP5
T2 sequence (O75197 32-1615): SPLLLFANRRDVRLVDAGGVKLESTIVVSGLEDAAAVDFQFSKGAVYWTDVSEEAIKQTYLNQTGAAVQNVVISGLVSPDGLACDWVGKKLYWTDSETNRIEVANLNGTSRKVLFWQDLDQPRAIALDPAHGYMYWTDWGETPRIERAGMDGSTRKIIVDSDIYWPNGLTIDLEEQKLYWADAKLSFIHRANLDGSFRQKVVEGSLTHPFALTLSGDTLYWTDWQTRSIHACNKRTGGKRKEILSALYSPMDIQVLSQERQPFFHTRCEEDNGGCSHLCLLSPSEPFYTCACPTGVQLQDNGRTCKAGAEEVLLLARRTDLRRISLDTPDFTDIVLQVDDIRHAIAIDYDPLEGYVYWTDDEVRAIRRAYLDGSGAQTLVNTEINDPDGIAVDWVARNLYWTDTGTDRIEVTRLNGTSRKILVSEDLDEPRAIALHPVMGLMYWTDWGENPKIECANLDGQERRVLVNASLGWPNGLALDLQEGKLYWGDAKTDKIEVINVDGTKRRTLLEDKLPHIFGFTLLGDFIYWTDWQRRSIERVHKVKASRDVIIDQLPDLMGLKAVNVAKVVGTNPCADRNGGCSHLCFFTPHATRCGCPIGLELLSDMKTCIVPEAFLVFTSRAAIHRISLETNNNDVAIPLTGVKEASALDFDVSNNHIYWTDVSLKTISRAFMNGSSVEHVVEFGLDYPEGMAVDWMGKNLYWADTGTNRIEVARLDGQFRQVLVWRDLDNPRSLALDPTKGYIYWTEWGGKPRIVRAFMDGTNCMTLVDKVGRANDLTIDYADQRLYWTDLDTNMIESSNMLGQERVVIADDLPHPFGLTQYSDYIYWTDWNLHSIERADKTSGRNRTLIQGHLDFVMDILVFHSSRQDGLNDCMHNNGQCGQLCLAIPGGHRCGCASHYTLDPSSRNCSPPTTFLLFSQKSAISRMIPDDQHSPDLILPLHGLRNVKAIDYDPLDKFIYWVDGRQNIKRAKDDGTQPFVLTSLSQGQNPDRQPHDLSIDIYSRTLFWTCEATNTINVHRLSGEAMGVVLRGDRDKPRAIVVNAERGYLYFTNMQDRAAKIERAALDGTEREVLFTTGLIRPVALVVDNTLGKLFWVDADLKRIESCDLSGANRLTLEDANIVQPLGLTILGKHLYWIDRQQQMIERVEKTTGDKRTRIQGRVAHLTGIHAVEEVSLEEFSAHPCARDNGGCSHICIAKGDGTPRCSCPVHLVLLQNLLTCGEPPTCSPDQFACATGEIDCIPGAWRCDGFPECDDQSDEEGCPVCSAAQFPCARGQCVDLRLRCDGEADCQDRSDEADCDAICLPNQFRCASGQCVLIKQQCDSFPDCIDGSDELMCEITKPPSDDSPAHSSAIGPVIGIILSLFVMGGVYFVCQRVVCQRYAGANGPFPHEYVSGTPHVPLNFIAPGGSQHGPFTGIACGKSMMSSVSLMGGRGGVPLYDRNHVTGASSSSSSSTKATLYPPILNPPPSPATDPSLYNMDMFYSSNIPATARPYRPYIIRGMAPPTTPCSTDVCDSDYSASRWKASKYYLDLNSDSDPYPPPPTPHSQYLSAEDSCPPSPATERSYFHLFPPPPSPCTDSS

[3] = molecular target: T1, LRP6 on LRP6-transduced HT1080 cells …; experiment: competition against 125I-DKK1 for LRP6 (FIG. 10D)
[4] = molecular target: T1, LRP6 on LRP6-transduced HT1080 cells …; experiment: Scatchard analysis of 125I-Mesd saturation binding to LRP6-transduced HT1080 cells, 3 h at 4 C
Source text: (C) Scatchard plots of data in B. All values are the average of triple determinations with the s.d. indicated by error bars.

[5] = molecular target: T3, human VLDLR on stably transfected LRP-null CHO cells (human, UniProt P98155 28-873); experiment: 125I-Mesd binding to stably transfected LRP-null CHO cells, 4 h at 4 C, with or without 500 nM Mesd
T3 construct: whole, on cells

[6] = molecular target: T4, human apoER2 on stably transfected LRP-null CHO cells (human, UniProt Q14114 33-963); experiment: as above
T4 construct: whole, on cells
T4 sequence (looked up): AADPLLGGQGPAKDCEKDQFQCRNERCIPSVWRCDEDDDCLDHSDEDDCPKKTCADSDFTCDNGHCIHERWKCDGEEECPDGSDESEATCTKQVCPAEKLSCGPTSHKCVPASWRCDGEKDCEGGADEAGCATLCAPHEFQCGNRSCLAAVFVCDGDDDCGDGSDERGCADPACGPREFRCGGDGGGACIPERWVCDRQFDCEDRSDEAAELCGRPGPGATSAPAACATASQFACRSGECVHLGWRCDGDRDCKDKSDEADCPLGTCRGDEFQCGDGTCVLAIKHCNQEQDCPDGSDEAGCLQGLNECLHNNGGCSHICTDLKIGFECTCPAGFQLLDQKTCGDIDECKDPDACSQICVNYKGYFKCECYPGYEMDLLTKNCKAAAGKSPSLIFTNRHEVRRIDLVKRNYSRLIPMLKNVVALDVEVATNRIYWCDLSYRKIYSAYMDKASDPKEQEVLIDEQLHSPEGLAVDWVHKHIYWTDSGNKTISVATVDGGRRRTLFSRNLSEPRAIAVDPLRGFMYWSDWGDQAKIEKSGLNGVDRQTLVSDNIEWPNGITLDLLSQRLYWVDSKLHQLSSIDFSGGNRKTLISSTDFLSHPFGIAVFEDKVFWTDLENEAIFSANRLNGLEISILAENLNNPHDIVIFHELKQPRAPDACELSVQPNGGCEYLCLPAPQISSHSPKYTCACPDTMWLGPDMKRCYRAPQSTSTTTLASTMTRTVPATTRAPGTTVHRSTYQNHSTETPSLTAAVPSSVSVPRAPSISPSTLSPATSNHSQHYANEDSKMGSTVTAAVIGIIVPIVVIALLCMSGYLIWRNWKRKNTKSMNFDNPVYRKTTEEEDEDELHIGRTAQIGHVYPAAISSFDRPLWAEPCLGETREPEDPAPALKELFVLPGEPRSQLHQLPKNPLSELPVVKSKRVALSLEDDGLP

Chain of LRP5 (O75197 32-1615): as the sequence (O75197 32-1615) above

Reduction in binding of ^125I-DKK1 to LRP5 (LRP5): small but significant reduction
Reduction of binding of ^125I-Mesd to LRP6 (LRP6): even greater reduction
Molecule: KGGGSKEKNKTKPEKAKKKEGDPKPRASKEDNRAGSR [SEQ ID NO: 20]
Alkaline phosphatase (AP) activity (ST-2 cells): increasing levels of AP activity

binding result [1]: no binding
B1: Mesd(12-155) (other, not shown: small tags and cut ends)
chain: RKKKDIRDYNDADMARLLEQWEKDDDIEEGDLPEHKRPSAPIDFSKLDPGKPESILKMTKKGKTLMMFVTVSGNPTEKETEEITSLWQGSLFNANYDVQRFIVGSDRAIFMLRDGSYAWEIKDFLVSQDRCAEVTLEGQMYPGK
modifications: 125I-iodinated when used as radioligand
notes: also called truncated Mesd mutant lacking both the N-terminal and C-terminal regions

fold reduction of ^125I-Mesd binding [2]: ~10 fold
fold reduction of ^125I-DKK1 binding [3]: > 2 fold
Kd [4]: ~3.3 nM
binding result [5]: no binding (tested: 5 nM 125I-Mesd)
binding result [6]: no binding (tested: 5 nM 125I-Mesd)
B2: recombinant mouse Mesd protein (wild type) (other, not shown: small tags and cut ends)
chain: ADTPGEATPPPRKKKDIRDYNDADMARLLEQWEKDDDIEEGDLPEHKRPSAPIDFSKLDPGKPESILKMTKKGKTLMMFVTVSGNPTEKETEEITSLWQGSLFNANYDVQRFIVGSDRAIFMLRDGSYAWEIKDFLVSQDRCAEVTLEGQMYPGKGGGSKEKNKTKPEKAKKKEGDRKPRASKEDNRAGSRREDL
modifications: 125I-iodinated (IODO-GEN) when used as radioligand
notes: Made in E. coli from full-length mouse Mesd cDNA; also called wild type Mesd
